Measured values published in patent CN117836321A.

Target: VV B5单体蛋白 (Wyeth牛痘毒株的B5序列, C-末端AVI标签和HIS6标签) (牛痘病毒 Wyeth毒株)

B1: A048亲本抗B5 hIgG1 (antibody, V domains shown)
VH: QEQLEESGGGLVKPEGSLTLTCTASGFSFSSSYYMCWVRQAPGRGLEWIACIYTSSGSAYYANWAKGRFTISRTSSTTVTLQMTRLTAADTATYFCVRNAVGSSYYLYLWGPGTLVTVSS
VL: AQVLTQTPSPVSAAVGGTVTISCQASQSVAGNNYLSWYQQKPGQPPNLLIYSVSTLASGVPSRFKGSGSGTQFTLTISDLECDDAATYYCQGYYNDGIWAFGGGTEVVVK
Kd: 9.5 nM
